Measured values as given in patent US20250313644A1 (FUTUREGEN BIOPHARMACEUTICAL BEIJING, published 2025).

T1: FASL (UniProt P48023 134-281, limits assumed)
T1 sequence (looked up): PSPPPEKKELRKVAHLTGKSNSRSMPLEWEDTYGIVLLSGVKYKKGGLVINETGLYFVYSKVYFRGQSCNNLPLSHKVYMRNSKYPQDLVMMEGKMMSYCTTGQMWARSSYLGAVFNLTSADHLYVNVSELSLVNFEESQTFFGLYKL

T2: LT-α (UniProt P01374 35-205)
T2 sequence (looked up): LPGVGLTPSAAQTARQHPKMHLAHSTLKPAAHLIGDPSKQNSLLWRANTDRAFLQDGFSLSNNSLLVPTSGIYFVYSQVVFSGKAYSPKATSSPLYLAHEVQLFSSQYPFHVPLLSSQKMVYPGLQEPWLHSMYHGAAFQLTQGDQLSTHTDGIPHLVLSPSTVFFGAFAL

T3: HuTL1A mutant R103A (mutant number 4057) (human, UniProt O95150 57-251, limits assumed)
T3 construct: whole entry named
T3 chain: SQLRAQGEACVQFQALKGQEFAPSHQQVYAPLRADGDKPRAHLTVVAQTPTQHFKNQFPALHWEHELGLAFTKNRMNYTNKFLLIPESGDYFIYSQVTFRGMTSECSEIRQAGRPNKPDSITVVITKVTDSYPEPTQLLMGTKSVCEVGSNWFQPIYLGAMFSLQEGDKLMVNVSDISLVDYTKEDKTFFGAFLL

T4: HuTL1A mutant G124R (mutant number 4059) (human, UniProt O95150 57-251, limits assumed)
T4 construct: whole entry named
T4 chain: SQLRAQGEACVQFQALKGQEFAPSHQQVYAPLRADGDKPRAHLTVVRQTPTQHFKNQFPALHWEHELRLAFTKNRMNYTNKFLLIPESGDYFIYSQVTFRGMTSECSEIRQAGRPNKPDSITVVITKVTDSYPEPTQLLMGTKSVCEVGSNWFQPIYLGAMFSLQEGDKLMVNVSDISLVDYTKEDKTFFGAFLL

T5: human TL1A (HuTL1A) (human, UniProt O95150 57-251, limits assumed, biotin-labelled in some assays (site not stated))
T5 construct: Expressed in EXPI-293 cells and purified by Ni-NTA (His-tag); Described as a trimeric antigen; also called TL1A antigen; WT
T5 sequence: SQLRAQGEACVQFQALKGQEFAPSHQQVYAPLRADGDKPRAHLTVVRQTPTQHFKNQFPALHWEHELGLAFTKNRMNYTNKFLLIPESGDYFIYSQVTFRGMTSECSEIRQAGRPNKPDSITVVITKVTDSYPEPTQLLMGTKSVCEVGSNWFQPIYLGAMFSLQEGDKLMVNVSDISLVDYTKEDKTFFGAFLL


Assays:
[1] = target: T1, FASL; assay: ELISA, coated FASL, Ab 1.563 nM
Description: (§1) In this experiment, ELISA was used to assess the binding ability of monoclonal antibodies to TL1A homologous molecules. Representative members of the TNF ligand superfamily, TNFα, LT-α, LIGHT and FASL, were selected for binding testing. 1 μg/mL of TNFα, LT-α, LIGHT or FASL was coated in a microplate with a carbonate buffer solution at pH=9.6, 100 μL per well, and the microplate was incubated at 4° C. overnight. The microplate was then washed 5 times with PBST, blocked with 300 μL/well of PBS containing 1% BSA, and was incubated at room temperature for 1 hour. After washing 5 times with PBST, about 100 μL each of the M701 monoclonal antibodies and the control antibodies were added to each well, and were incubated at room temperature for 1 hour. After washing 5 times with PBST, 100 μL of HRP-anti-human Fc (Sino Biological) was added to each well, and was incubated at room temperature for 1 hour. After washing 5 times with PBST, 100 μL of colorimetric substrate TMB was added to each well, and color was developed at room temperature for 10 minutes, followed by addition of 1M sulfuric acid to terminate the reaction. OD450 nm was recorded on a microplate reader.

[2] = target: T2, LT-α; assay: ELISA, coated LT-α, Ab 0.391 nM
Description: as §1

[3] = target: T3, HuTL1A mutant R103A (mutant number 4057); assay: ELISA on antigen mutant
[4] = target: T4, HuTL1A mutant G124R (mutant number 4059); assay: ELISA on antigen mutant
[5] = target: T2, LT-α; assay: ELISA, coated LT-α
Description: as §1

[6] = target: T2, LT-α; assay: ELISA, coated LT-α, Ab 25 nM
Description: as §1

[7] = target: T1, FASL; assay: ELISA, coated FASL, Ab 100 nM
Description: as §1

[8] = target: T5, human TL1A (HuTL1A); assay: ELISA: biotin-HuTL1A on streptavidin plate, antibody diluted at pH 7.4, HRP-anti-human Fc, OD450
Description: Corresponding antibodies were added to specific wells, and the antibodies were diluted with sodium dihydrogen phosphate-citrate buffer at pH 7.4, pH 6.0, pH 5.8, or pH 5.6. Binding assay was carried out at room temperature for 30 minutes. After the incubation, the excess antibodies were removed and the wells were washed by PBST. HRP-anti-Human Fc (Sino Biological) was then added into each well and incubated for 30 minutes to detect the bound antibody. The substrate TMB was finally added to develop color for 5-10 minutes. The color development reaction was terminated with 1M sulfuric acid. OD450 nm was recorded on a microplate reader, and the data were processed and fitted by 4 parameter logistic regression.

[9] = target: T6, TNFα (UniProt P01375 77-233); assay: ELISA, coated TNF-α, Ab 0.000 nM (blank)
T6 sequence (P01375 77-233 limits assumed): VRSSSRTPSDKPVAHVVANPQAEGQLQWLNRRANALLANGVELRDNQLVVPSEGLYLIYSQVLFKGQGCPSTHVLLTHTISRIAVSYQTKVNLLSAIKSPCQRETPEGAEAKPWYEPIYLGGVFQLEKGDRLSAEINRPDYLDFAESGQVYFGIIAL
Description: as §1

[10] = target: T1, FASL; assay: ELISA, coated FASL, Ab 6.25 nM
Description: as §1

[11] = target: T7, LIGHT (UniProt O43557 74-240, limits assumed); assay: ELISA, coated LIGHT, Ab 6.25 nM
T7 sequence (O43557 74-240 limits assumed): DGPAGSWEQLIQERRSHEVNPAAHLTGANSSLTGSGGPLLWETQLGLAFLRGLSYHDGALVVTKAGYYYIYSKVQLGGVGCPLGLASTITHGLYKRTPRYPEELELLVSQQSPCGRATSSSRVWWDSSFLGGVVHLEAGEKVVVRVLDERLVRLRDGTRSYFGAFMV
Description: as §1

[12] = target: T7, LIGHT; assay: ELISA, coated LIGHT
Description: as §1

[13] = target: T6, TNFα; assay: ELISA, coated TNF-α, Ab 25 nM
Description: as §1

[14] = target: T6, TNFα; assay: ELISA, coated TNF-α, Ab 100 nM
Description: as §1

[15] = target: T1, FASL; assay: ELISA, coated FASL, Ab 0.391 nM
Description: as §1

[16] = target: T6, TNFα; assay: ELISA, coated TNF-α, Ab 0.391 nM
Description: as §1

Binder	OD450 nm [1]	OD450 nm [2]	binding result [3]	binding result [4]	binding result [5]	OD450 nm [6]	OD450 nm [7]	EC50 (read off the curve) [8] [pM]	OD450 nm [9]	OD450 nm [10]	OD450 nm [11]	binding result [12]	OD450 nm [13]	OD450 nm [14]	OD450 nm [15]	OD450 nm [16]
M701-3966 (antibody, human IgG1, kappa, L234A L235A, V domains shown, Fc-engineered IgG1) VH: ELQLQESGPGLVKPSETLSLTCAVSGVSFSDYHWAWIRQPPGKGLEWIGDINHRGHTNYNPSLKSRVTVSIDTSKNQFSLKLSSVTAADTAVYFCARDFPNFIFDYWGQGTLVTVSS VL: DIQLTQSPGTLSLSPGERATLSCRASQSVSSYLAWYQQKPGQAPRLLIYGASKRATGIPDRFSGSGSGTDFTLTISRLEPEDFAVYYCQQYGDSPLTFGQGTKVEIKR	0.0522	0.0604	no binding	no binding	no binding (tested: 100 nM)	0.0639	0.0914	~100	0.0706	0.0525	0.0568	no binding (tested: 100 nM)	0.0593	0.0787	0.0504	0.0517
M701-4007 (antibody, human IgG1, kappa, L234A L235A, V domains shown, Fc-engineered IgG1) VH: ELQLQESGPGLVKPSETLSLTCAVSGVSFSDYHWAWIRQPPGKGLEWIGDINHRGHTNYNPSLKSRVTVSIDTSKNQFSLKLSSVTAADTAVYFCARDFPNFIFDFWGQGTLVTVSS VL: DIQLTQSPGTLSLSPGERATLSCRASQSVSTYLAWYQQKPGQAPRLLIYGASKRATGIPDRFSGSGSGTDFTLTISRLEPEDFAVYYCQQYGDSPLTFGQGTKVEIKR	0.06	0.0576	no binding	no binding	no binding (tested: 100 nM)	0.0628	0.089	~100	0.0762	0.0523	0.0542	no binding (tested: 100 nM)	0.0665	0.079	0.0504	0.0557
